The values that follow come from paper PMC6856128 (Scientific Reports, 2019).

The data set deals with O=S(O)(O)=S. As to the kind of experiment: purified protein. The conditions noted are these: pH 8.0; 37.0 °C.

On to “CysA2 (Mycobacterium tuberculosis H37Rv)”, for which the Km amounted to 2970 ± 50 µM.
